Consider 1 compound from US20250121076A1, “POLYPEPTIDE DRUG CONJUGATE HAVING NOVEL STRUCTURE AND APPLICATION THEREOF” (MEDSHINE DISCOVERY INC., priority 2021, published 2025).

Series [1] relates to NCI-H1975. Briefly: In vitro anti-proliferative activity, CellTiter-Glo. The series is classed as cell-based, Human. Particulars: NCI-H1975, 72 h. As to the method:
(§1) To investigate the effect of the compounds of the present invention on inhibiting cell proliferation by detecting the effect of the compounds on cell activity in vitro in tumor cell lines NCI-H1975 and SK-OV-3.
(§2) The tumor cell lines were cultured in a 37° C., no CO2 incubator and a 37° C., 5% CO2 incubator according to the culture conditions shown in Table 15, respectively. The cells were periodically passaged, and cells in a logarithmic growth phase were taken for plating.
(§3) Cells in a logarithmic growth phase were harvested and centrifuged at 1000 rpm for 3 min at room temperature. The supernatant was discarded, and the cells were resuspended in 5 mL of a culture medium. Then, 20 ul of the cell suspension was pipetted and mixed with trypan blue at 1:1 for staining for 3 min to detect cell viability and to count viable cells. The cell density was adjusted to 4000 NCI-H1975/well or 5000 SK-OV-3/well. Then, 90 μL of the cell suspension was added to each culture plate well, and a cell-free culture medium was added to blank control wells. […]
(§4) The detection was performed according to the instructions of the Promega CellTiter-Glo Luminescent Cell Viability Assay kit (Promega-G7573). The luminescence signal was detected on the En Vision® Multi-mode Plate Reader (EnVision 2104-10). […]

The test system of series [2] is SK-OV-3. The series is described as above. Type of series: cell-based, Human. The note with it: SK-OV-3, 72 h. As to the method: as §1, §2, §3, §4
Series [3] can be described thus: In vivo pharmacokinetic analysis in mice. On the set-up: species or system CD-1 mice. The note with it: mouse, in vivo, CD-1 mice, single IV 2 mg/kg, plasma. As for the experimental part: To test the pharmacokinetics of the compounds of the present invention in CD-1 mice
(§5) The pharmacokinetic characteristics of the compound after intravenous injection and oral administration were tested in CD-1 mice according to a standard protocol. The compound of the present invention was formulated into a clear solution using 50 mM acetate buffer (pH=5) in 10% sucrose as a vehicle. Two mice were given a single intravenous injection of 2 mg/kg of the compound to be tested. Whole blood was collected at time points of 0.083, 0.25, 0.5, 1, 2, 4, 8, and 24 hours after administration to get plasma. The concentration of the compound to be tested and the concentration of its potential metabolite MMAE were analyzed by the LC-MS/MS method, and the pharmacokinetic parameters, such as maximal concentration (Cmax), clearance (Cl), half-life (T1/2), tissue distribution (Vdss), and area under the concentration-time curve (AUC0-last), were calculated by Phoenix WinNonlin software.

Series [4] can be described thus: Pharmacokinetic analysis in rat plasma at different doses (6.2). The series is classed as in vivo, SD rats. Particulars: rat, in vivo, male SD rats. As for the experimental part: Experimental purpose: To test the pharmacokinetics of the compounds of the present invention in SD rats.
6.2 The pharmacokinetic characteristics of the compound after intravenous injection and oral administration were tested in rats according to a standard protocol. The compound to be tested was formulated into a clear solution using 50 mM acetate buffer (pH=5) in 10% sucrose as a vehicle. Three male SD rats were given a single intravenous injection of 2.5 mg/kg, 3.75 mg/kg, or 5 mg/kg of the compound to be tested. Whole blood was collected at time points of 0.083, 0.25, 0.5, 1, 4, and 24 hours after administration to get plasma. The concentration of the compound to be tested and the concentration of its potential metabolite MMAE were analyzed by the LC-MS/MS method, and the pharmacokinetic parameters were calculated.

A short description of series [5]: Pharmacokinetic analysis in Cynomolgus macaque plasma. Particulars: cynomolgus monkey, in vivo, Cynomolgus macaques, single IV 1 mg/kg, plasma. Type of series: in vivo, Cynomolgus macaques. As for the experimental part:
To test the pharmacokinetics of the compounds of the present invention in Cynomolgus macaques.
as §5, with “in Cynomolgus macaques” for “in CD-1 mice”, “Two Cynomolgus macaques” for “Two mice”, “of 1” for “of 2”, “pharmacokinetic parameters” for “pharmacokinetic parameters, such as maximal concentration (Cmax), clearance (Cl), half-life (T1/2), tissue distribution (Vdss), and area under the concentration-time curve (AUC0-last),”

Counter-ions that a name gives are not always drawn. Starred links: 1 amine or outer side, 2 acyl side, 3 side chain; linkers in the order of their positions; H or OH if unused. Positions of bridges follow the written chain, without caps; N, C: chain ends. Non-standard residues stand in square brackets, D forms with d. Residues, ends and D or L forms follow the SMILES beside them. Chains are numbered I, II in the order given. *: point of attachment. TATA = O=C(CC[*:1])N1CN(C(=O)CC[*:2])CN(C(=O)CC[*:3])C1; Dolaproine = CO[C@@H]([C@@H]1CCCN1)[C@@H](C)C(=O)O; Dil = CC[C@H](C)[C@H](NC)[C@@H](CC(=O)O)OC; X2 = O=C(CCCC(=O)[*:2])NCCC(=O)[*:1]; PABC = O=C(OCc1ccc(N[*:1])cc1)[*:2]; X1 = C[C@@H](N*)[C@@H](O)c1ccccc1; Hyp = O=C(O)[C@@H]1C[C@@H](O)CN1; hArg = N=C(N)NCCCC[C@H](N)C(=O)O; Cit = NC(=O)NCCC[C@H](N)C(=O)O; Pen = CC(C)(S)[C@H](N)C(=O)O; NMeV = CN[C@H](C(=O)O)C(C)C; Sar = CNCC(=O)O

For orientation: IC50 means the point on the concentration scale where inhibition reaches its midpoint. The low end stands for higher potency, the high end for lower potency. As a reminder, the AUC(0-t) is exposure summed from dosing to a finite time, without extrapolation to infinity. By clearance is commonly meant the volume of plasma or blood freed of the substance per unit of time. Usually half-life stands for how long it takes for the measured level to halve. Low values mean fast loss, high ones slow loss. Broadly, the Cmax is the highest concentration seen after dosing. `CC[C@H](C)[C@@H]([C@@H](CC(=O)N1CCC[C@H]1[C@H](OC)[C@@H](C)C(=O)N[C@H](C)[C@@H](O)c1ccccc1)OC)N(C)C(=O)[C@@H](NC(=O)[C@H](C(C)C)N(C)C(=O)OCc1ccc(NC(=O)[C@H](CCCNC(N)=O)NC(=O)[C@@H](NC(=O)CCCC(=O)NCCC(=O)N(C)CC(=O)N(C)CC(=O)N(C)CC(=O)N(C)CC(=O)N(C)CC(=O)N(C)CC(=O)N(C)CC(=O)N(C)CC(=O)N(C)CC(=O)N(C)CC(=O)N[C@H]2CCCCNC(=O)C[C@@H](C(=O)N[C@H]3CSCCC(=O)N4CN5CN(C4)C(=O)CCSC(C)(C)[C@@H](C(N)=O)NC(=O)[C@H](CCCCNC(=N)N)NC(=O)[C@H](Cc4c[nH]c6ccccc46)NC(=O)[C@@H](CC(=O)O)NC(=O)[C@@H]4CCCN4C(=O)[C@H](Cc4c[nH]cn4)NC(=O)[C@H](CC(C)C)NC(=O)[C@H](CSCCC5=O)NC(=O)[C@H](CC(C)C)NC(=O)[C@@H]4CCCN4C(=O)[C@H](CC(N)=O)NC(=O)[C@H](C(C)C)NC(=O)[C@H](CC(C)C)NC(=O)[C@@H]4C[C@@H](O)CN4C3=O)NC(=O)[C@H](CCCCNC(=N)N)NC2=O)C(C)C)cc1)C(C)C` [Acetate salt of PDC_8] (I: [Sar][Sar][Sar][Sar][Sar][Sar][Sar][Sar][Sar][Sar]K[hArg]DC[Hyp]LVNPLCLHP[dD]W[hArg][Pen]-NH2 / II: V[Cit][PABC][NMeV]V[Dil][Dolaproine]-X1; lactam I:11-I:13; linker I:14-I:21-I:28 via TATA; linker I:N-II:N via X2): the IC50 in series [1] is 79 nM; in series [2] it was 586 nM. Moreover, the AUC(0-t) in series [3] amounted to 0.56 µM·h; in series [4] (single IV 2.5 mg/kg) it was 0.765 µM·h; in series [4] (single IV 3.75 mg/kg), 3.09 µM·h; in series [4] (single IV 5 mg/kg) it was 5.65 µM·h; in series [5], 0.651 µM·h. In addition, the figures for the C0 in series [3] and in series [5] were 2640 nM and 2470 nM, respectively. The results for the clearance in series [3] and in series [5] were 13 mL/min/kg and 5.72 mL/min/kg, respectively. The half-life in series [3] is 12 min; in series [5], 18.6 min. The Vd in series [3] (read-out: Vdss) turned out to be 0.19 L/kg; in series [5] (read-out: Vdss) it was 0.12 L/kg. The results for the Cmax in series [4] (single IV 2.5 mg/kg), in series [4] (single IV 3.75 mg/kg) and in series [4] (single IV 5 mg/kg) were 1960 nM, 2750 nM and 4590 nM, respectively.
